Where a chain is given by its changes, count along the chain named. Where two headings read alike, the source gives them in different places.
B1: 9-L13-A (antibody, V domains shown)
VH: QVQLKESGPGLVAPSQSLSITCTVSGFSLTSYAISWVRQPPGKGLEWLGLIWTGGGTNYNSALKSRLSISKDNSKSQIFLKMNSLQTDDTARYYCARGPPLIYYGDLYYFDYWGQGTTLTVSS
VL: DIQMTQSPSSLSASLGGKVTITCKASQDINKYIAWYQHKPGKGPRLLIHYTSTLQPGIPSRFSGSGSGRDYSFSISNLEPEDIATYYCLQYDNLWTFGGGTKLEIK
B2: 6-L8-A (antibody, V domains shown)
VH: EVQLQQSVAELVRPGASVKLSCTPSGFNIKNTYMHWMKQRPEQGLEWIGRINPANDDTKYAPKFQDKATITADTSSNTAYLQLSSLTSEDTAIYYCVYDVRWYFDVWGTGTTVTVSS
VL: DVVMTQTPLSLPVSLGDQASISCRSSQGLVHSNGNTYLHWYLQKPGQSPKLLIYKVSNRFSGVPDRFSGSGSGTDFTLKISRVEAEDLGVYFCSQSTHVPPTFGAGTKLELK
B3: 8-N24-A (antibody, V domains shown)
VH: QVQLQQPGAELVKPGASVKVSCKASGYTFTSYWMHWVKQRPGQGLEWIGRIHPSDSDTNYYQKFKGKATLSVDKSSSTAYMQLSSLTSEDSAVYYCAIPLYSYDNSGGYYPMDYWGQGTSVTVSS
VL: DIVMTQSQKFMSTSVGDRVTITCKASQNVRTAVAWYQQKPGQSPKKLIYLASNRHTGVPDRFTGSGSGTDFTLAISNVQSEDLADYFCLQHWNYPFTFGSGTRLEIK
B4: 4-K13-A (antibody, V domains shown)
VH: QAYLQQSGAELVRPGASVKMSCKASGYTFTSYTVHWVKQTPRQGLEWIGAIYPGNVDTSYNQNFKGKATLTVDKSSSTAYMQLSSLTSEDSAVYFCARDGYYAMDYWGQGTSVTVSS
VL: not shown
B5: 2-P2-A (antibody, V domains shown)
VH: EVQLQQSGAELVRPGSSVKMSCKTSGYTFTSYGINWVKQRPGQGLEWIGYIYIGNGYTEYNEKFKGKATLTSDTSSSTAYMQLSSLTSEDSAIYFCARGGVDYWGQGTTLTVSS
VL: DVLMTQTPLSLPVSLGDQASISCRSSQSIVHSNGNTYLEWYLQKPGQSPKLLIYKVSNRFSGVPDRFSGSGSGTDFTLKISRVEAEDLGVYYCFQGSHVPYTFGGGTKLEIK
B6: 9-P9-A (antibody, V domains shown)
VH: DVKLVESGEGLVKPGGSLKLSCAASGFSFSNFGMSWVRQTPEKRLEWVAYISSGGDYIYYADTVKGRFTISRDNARNTLYLQMSSLKSEDTAIYYCTRGYFDYWGQGTTLTVSS
VL: B5 VL with K55T, I111M, K112R
B7: 3-E13-A (antibody, V domains shown)
VH: EVQLQQSGPELVKPGASVKMSCKASGYTFTDYNIHWVKQSHGKSLEWIGYINPNNGGTDYNQKFQGKATLTVNKSSSTAYMELRSLTSEDFAVYYCARGGFYGNYGAYYGMDFWGQGTSVTVSS
VL: DIQMTQSPASLSASVGETVTITCRTSENIYSHLAWYQQTQGKSPQLLVYNAKTLAEGVPSRFSGSGSGTHFSLKINSLQPEDFGSYYCQHHYGIPPEFGGGTKLEIK
B8: 4-N22-A (antibody, V domains shown)
VH: QVQLQQPGTELVKPGASVKLSCKASGYTFTNYWMYWVKQRPGQGLDWIGNINPSNGGTNYNEKFKSKATLTVDKSSSTAYMQLSSLTSEDSAVYYCARETGNYWGQGTTLTVSS
VL: DILMTQSPSSMSVSLGDTVSISCHASQGISSNIGWLQQKPGKSFKGLIYHGTNLEDGVPSRFSGSGSGADYSLTISSLESEDFADYYCVQYAQFPYTFGGGTKLEIK
B9: 6-C19-A (antibody, V domains shown)
VH: B7 VH with N73D, F91S, A107S
VL: B7 VL with Q45H, H70Q, Y87F
B10: 2-J9-A (antibody, V domains shown)
VH: B7 VH with F91S
VL: B7 VL with A51T, S63T, H70Q
B11: 4-C3-A (antibody, V domains shown)
VH: EVQLQQSGPELVKPGASVKISCKASGYSFTGYYMHWVKQSHGNILDWIGYIYPYNGVSSYNQKFKGKATLTVDKSSSTAYMELRSLTSEASAVYYCARAYGSSYDYYYGLDYWGQGTSVTVSS
VL: DIVLTQSPASLAVSLGQRATISCKASQSVDYDGAGYMNWYQQKPGQPPKLLISSASNLQSGIPARFSGSGSGTDFTLNIHPVEEEDAATYYCQQSNDDPYTFGGGTKLEIK

Legend:
Assay in all cases: ELISA
[1] = molecular target: T1, SARS-CoV-2 prefusion stabilized trimer protein (WIV02 isolate spike protein) (UniProt P0DTC2 14-1213)
[2] = molecular target: SARS-CoV-2 receptor binding domain (UniProt P0DTC2 319-541)
[3] = molecular target: SARS-CoV-1 spike protein (SARS-CoV-1, UniProt P59594 14-1195)
[4] = molecular target: T1, SARS-CoV-2 prefusion stabilized trimer …; remark: listed apart in the source
[5] = molecular target: SARS-CoV-2 S2 domain (UniProt P0DTC2 686-1213)
[6] = molecular target: T2, HKU1 spike protein (HCoV-HKU1)
T2 chain: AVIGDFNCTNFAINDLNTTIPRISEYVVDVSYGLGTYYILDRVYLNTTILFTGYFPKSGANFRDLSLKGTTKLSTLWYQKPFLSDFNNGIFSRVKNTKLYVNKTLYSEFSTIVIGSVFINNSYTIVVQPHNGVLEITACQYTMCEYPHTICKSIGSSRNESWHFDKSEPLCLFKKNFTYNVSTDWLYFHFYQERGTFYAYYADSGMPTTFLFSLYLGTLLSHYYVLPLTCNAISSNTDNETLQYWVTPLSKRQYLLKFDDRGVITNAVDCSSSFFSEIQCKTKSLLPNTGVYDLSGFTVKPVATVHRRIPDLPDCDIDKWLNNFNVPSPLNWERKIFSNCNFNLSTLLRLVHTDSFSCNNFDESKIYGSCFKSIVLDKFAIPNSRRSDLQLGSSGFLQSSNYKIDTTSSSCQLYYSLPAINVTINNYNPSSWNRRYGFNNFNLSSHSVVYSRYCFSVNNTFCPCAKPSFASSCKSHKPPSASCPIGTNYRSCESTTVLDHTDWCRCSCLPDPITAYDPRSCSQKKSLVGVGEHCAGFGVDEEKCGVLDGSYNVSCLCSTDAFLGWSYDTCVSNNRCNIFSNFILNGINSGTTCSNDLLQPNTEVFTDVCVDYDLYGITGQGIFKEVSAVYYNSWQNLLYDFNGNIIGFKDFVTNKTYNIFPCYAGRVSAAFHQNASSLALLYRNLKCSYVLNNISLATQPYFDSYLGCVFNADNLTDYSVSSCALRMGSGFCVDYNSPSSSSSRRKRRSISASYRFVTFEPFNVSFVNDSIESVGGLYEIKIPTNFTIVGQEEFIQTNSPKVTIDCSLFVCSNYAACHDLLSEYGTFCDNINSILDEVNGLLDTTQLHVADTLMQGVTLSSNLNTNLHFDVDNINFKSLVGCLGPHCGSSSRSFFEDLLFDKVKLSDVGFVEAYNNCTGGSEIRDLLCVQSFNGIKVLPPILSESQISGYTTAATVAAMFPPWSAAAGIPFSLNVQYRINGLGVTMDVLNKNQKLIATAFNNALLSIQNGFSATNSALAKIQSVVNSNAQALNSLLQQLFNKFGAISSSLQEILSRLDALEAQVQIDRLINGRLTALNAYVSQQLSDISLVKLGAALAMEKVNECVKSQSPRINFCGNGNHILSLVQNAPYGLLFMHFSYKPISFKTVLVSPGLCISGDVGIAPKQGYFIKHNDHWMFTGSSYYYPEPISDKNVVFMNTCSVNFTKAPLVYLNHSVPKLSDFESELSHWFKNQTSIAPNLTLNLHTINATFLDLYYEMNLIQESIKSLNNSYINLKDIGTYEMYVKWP

[7] = molecular target: T3, MERS spike protein (MERS-CoV, UniProt K9N5Q8 18-1296)
T3 chain: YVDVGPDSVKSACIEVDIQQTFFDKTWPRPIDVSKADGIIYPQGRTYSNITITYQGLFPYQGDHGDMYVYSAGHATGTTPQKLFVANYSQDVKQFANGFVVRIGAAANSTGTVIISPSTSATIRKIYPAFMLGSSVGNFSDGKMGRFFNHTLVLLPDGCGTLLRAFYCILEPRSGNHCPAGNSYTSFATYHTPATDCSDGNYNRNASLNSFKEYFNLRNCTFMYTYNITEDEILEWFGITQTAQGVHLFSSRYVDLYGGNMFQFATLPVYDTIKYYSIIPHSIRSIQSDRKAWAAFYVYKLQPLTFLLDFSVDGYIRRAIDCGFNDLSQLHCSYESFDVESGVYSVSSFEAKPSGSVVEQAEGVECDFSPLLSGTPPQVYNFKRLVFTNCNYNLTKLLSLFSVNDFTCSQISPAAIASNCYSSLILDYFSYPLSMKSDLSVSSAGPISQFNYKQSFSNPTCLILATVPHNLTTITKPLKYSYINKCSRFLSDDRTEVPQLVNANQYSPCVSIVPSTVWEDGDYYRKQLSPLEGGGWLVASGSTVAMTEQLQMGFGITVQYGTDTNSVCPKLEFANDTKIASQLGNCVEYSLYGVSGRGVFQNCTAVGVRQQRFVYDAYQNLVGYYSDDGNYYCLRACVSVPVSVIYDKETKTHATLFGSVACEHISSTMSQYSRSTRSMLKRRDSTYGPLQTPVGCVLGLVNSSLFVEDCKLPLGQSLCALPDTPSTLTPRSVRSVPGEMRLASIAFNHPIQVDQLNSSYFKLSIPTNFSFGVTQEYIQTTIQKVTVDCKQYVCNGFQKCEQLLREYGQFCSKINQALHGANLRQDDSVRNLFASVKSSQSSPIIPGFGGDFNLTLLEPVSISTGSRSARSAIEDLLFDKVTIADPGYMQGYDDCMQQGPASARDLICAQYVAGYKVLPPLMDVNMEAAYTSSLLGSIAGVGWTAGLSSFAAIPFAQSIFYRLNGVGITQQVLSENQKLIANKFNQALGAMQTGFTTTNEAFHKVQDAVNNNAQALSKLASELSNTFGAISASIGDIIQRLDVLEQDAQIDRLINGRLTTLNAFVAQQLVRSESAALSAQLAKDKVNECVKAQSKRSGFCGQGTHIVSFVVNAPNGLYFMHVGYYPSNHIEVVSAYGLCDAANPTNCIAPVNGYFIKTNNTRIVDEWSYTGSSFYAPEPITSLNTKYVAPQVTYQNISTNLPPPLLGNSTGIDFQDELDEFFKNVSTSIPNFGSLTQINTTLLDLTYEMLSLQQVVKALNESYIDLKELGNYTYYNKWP

Binder | EC50 [1] | EC50 [2] | EC50 [3] | EC50 [4] | EC50 [5] | EC50 [6] | EC50 [7]
B1 | 8.45 nM | 26.9 nM | 6.31 nM | 8.18 nM | – | – | –
B2 | 7.46 nM | – | 43.5 nM | 6.8 nM | – | – | –
B3 | – | – | 59 nM | – | 4.43 nM | – | –
B4 | 0.14 nM | 0.15 nM | – | – | 87 nM | – | –
B5 | 0.13 nM | 89.5 nM | 0.19 nM | 0.12 nM | 0.07 nM | – | –
B6 | 0.05 nM | – | 0.06 nM | 0.05 nM | 0.04 nM | – | –
B7 | 0.08 nM | – | 0.16 nM | 0.08 nM | 0.05 nM | – | –
B8 | 17.8 nM | 0.21 nM | – | – | – | 15.8 nM | –
B9 | 0.49 nM | – | 1.98 nM | 0.48 nM | 0.39 nM | – | –
B10 | 0.08 nM | – | 0.17 nM | 0.11 nM | 0.05 nM | – | 1.83 nM
B11 | 0.54 nM | – | – | 0.08 nM | 81.1 nM | – | –
